Data reported in paper PMC4230323 (Biochemistry, 2014).
Where two headings read alike, the source gives them in different places.

How the values were obtained:
[1] = format: biochemical; details: read-out: Km(ATP); 100 μM SPS
[2] = format: biochemical; details: read-out: Km(SPS); Src peptide substrate

B1: Lyn^SH2eng: Lyn Q509E/Q510E/Q511I three-domain construct with enhanced SH2 engagement (protein)
chain: QGDIVVALYPYDGIHPDDLSFKKGEKMKVLEEHGEWWKAKSLLTKKEGFIPSNYVAKLNTLETEEWFFKDITRKDAERQLLAPGNSAGAFLIRESETLKGSFSLSVRDFDPVHGDVIKHYKIRSLDNGGYYISPRITFPCISDMIKHYQKQADGLCRRLEKACISPKPQKPWDKDAWEIPRESIKLVKRLGAGQFGEVWMGYYNNSTKVAVKTLKPGTMSVQAFLEEANLMKTLQHDKLVRLYAVVTREEPIYIITEYMAKGSLLDFLKSDEGGKVLLPKLIDFSAQIAEGMAYIERKNYIHRDLRAANVLVSESLMCKIADFGLARVIEDNEYTAREGAKFPIKWTAPEAINFGCFTIKSDVWSFGILLYEIVTYGKIPYPGRTNADVMTALSQGYRMPRVENCPDELYDIMKMCWKEKAEERPTFDYLQSVLDDFYTATEGQYEEIP
modifications: left off: His tag, N-terminal, kept
Km [1]: 54 ± 5 µM | Km [2]: 60 ± 10 µM
